The text below walks through data of US20240150451A1 (Janssen / Centocor, published 2024).

Numbering of substitutions follows the chain as printed.

In assay [1] the target is T1, recombinant full-length tau 2N4R (control tau) (human, UniProt P10636 2-758).
T1 construct: also called recombinant WT (2N4R) tau; Rec; Tau
Kind of assay: direct ELISA, 10 ng/well coated control tau, hybridoma screening. The protocol: Obtained hybridomas were seeded in 96-well plates and screened after 10 days in a direct ELISA on 25 ng/well coated PHF-tau as described below. Positive cells were tested for cross-reactivity on 10 ng/well coated with control tau (SEQ ID NO: 51) expressed in E. Coli BL21 cells and purified by heat treatment and ammonium sulphate precipitation. […] PT/66, PT/69 and hTau/60 were prioritized for V-region cloning and humanization.
(In general: An ELISA detects its analyte on a solid surface through an enzyme-linked reagent.)

The target of assay [2] is T2, Tau peptide Start 415 Stop 434.
T2 peptide: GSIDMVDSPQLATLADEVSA
Kind of assay: Pepscan ELISA on an array of linear 20-mer Tau 441 peptides. Set-up: peptide ELISA signal (no name or unit printed): unit not given here. The source says:
(§1) An amino functionalized polypropylene support was obtained by grafting with a proprietary hydrophilic polymer formulation, followed by reaction with t-butyloxycarbonyl-hexamethylenediamine (BocHMDA) using dicyclohexylcarbodiimide (DCC) with N-hydroxybenzotriazole (HOBt), and subsequent cleavage of the Boc-groups using trifluoroacetic acid (TFA). Standard Fmoc-peptide synthesis was used to synthesize peptides on the amino-functionalized solid support by custom modified JANUS liquid handling stations (Perkin Elmer). Synthesis of structural mimics was done using Pepscan's proprietary Chemically Linked Peptides on Scaffolds (CLIPS) technology. CLIPS technology allows to structure peptides into single loops, double loops, triple loops, sheet-like folds, helix-like folds, and combinations thereof. CLIPS templates are coupled to cysteine residues. The side-chains of multiple cysteines in the peptides are coupled to one or two CLIPS templates. For example, a 0.5 mM solution of the P2 CLIPS (2,6-bis(bromomethyl)pyridine) is dissolved in ammonium bicarbonate (20 mM, pH 7.8)/acetonitrile (1:3 (v/v)). This solution is added onto the peptide arrays. The CLIPS template will bind to side-chains of two cysteines as present in the solid-phase bound peptides of the peptide-arrays (455 wells plate with 3 μl wells). The peptide arrays are gently shaken in the solution for 30 to 60 minutes while completely covered in solution. Finally, the peptide arrays are washed extensively with excess of H₂O and sonicated in disrupt-buffer containing 1% SDS/0.1% beta-mercaptoethanol in PBS (pH 7.2) at 70° C. for 30 minutes, followed by sonication in H₂O for another 45 minutes. The T3 CLIPS carrying peptides were made in a similar way but now with three cysteines.
(§2) The binding of antibodies (recombinantly expressed as IgG2a) to each of the synthesized peptides was tested in a pepscan-based ELISA. The peptide arrays were incubated with primary antibody solution (overnight at 4° C.). After washing, the peptide arrays were incubated with a 1/1000 dilution of an appropriate antibody peroxidase conjugate (SBA; Table 4) for one hour at 25° C. After washing, the peroxidase substrate 2,2′-azino-di-3-ethylbenzthiazoline sulfonate (ABTS) and 20 μl/ml of 3 percent H₂O₂ were added. After one hour, the color development was measured.

Assay [3] addresses T3, Tau peptide Start 417 Stop 436.
T3 peptide: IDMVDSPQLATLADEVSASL
The assay is described as above. Set-up: peptide ELISA signal (no name or unit printed): unit not given here.
Source text: as §1, §2

In assay [4] the target is T4, Tau peptide Start 421 Stop 440.
T4 peptide: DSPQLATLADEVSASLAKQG
The description is as above. Set-up: peptide ELISA signal (no name or unit printed): unit not given here.
Source text: as §1, §2

The target in assay [5] is T5, Tau peptide Start 419 Stop 438.
T5 peptide: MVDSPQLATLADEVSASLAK
The description is as above. More on the design: peptide ELISA signal (no name or unit printed): unit not given here.
Source text: as §1, §2

Assay [6] deals with Tau peptide Start 1 Stop 20 (Synthetic linear peptide immobilised on a Pepscan array; the attachment to the array cannot be carried by the letters.). The description is as above. Set-up: peptide ELISA signal (no name or unit printed): unit not given here.
Source text: as §1, §2

Assay [7] concerns the target T6, Tau peptide Start 3 Stop 22 (Synthetic linear peptide immobilised on a Pepscan array; the attachment to the array cannot be carried by the letters.).
T6 peptide: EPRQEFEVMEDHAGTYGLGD
The description is as above. Set-up: peptide ELISA signal (no name or unit printed): unit not given here.
Source text: as §1, §2

Assay [8] deals with T7, Tau peptide Start 422 Stop 441.
T7 peptide: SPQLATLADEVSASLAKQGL
The description is as above. Set-up: peptide ELISA signal (no name or unit printed): unit not given here.
Source text: as §1, §2

For assay [9], the target named is T8, Tau peptide Start 413 Stop 432.
T8 peptide: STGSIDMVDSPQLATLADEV
The description is as above. Set-up: peptide ELISA signal (no name or unit printed): unit not given here.
Source text: as §1, §2

Assay [10] addresses T9, Tau peptide Start 411 Stop 430.
T9 peptide: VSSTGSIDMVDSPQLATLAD
Described as above. Set-up: peptide ELISA signal (no name or unit printed): unit not given here.
Source text: as §1, §2

Chain of Tau peptide Start 1 Stop 20 (Synthetic linear peptide immobilised on a Pepscan array; the attachment to the array cannot be carried by the letters.) (peptide, as listed by the source limits assumed): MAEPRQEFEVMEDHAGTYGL

B1: PT53 monoclonal antibody (recombinant, mouse IgG2a/kappa) (antibody, V domains shown)
VH: EVKLMESGGGLVQPGASLRLSCAASGFTFTDYYMSWVRQPPGKAPEWLALIRNKANGYTTKYAASVKGRFTISRDNSQNILYLQMNTLRAEDSATYYCVKAVWFAYWGQGTLVTVSA
VL: DIVITQDELSNPVTSGESVSISCRSSKSLLYKDGKTYLNWFLQRPGQSPQLLIYLMSTRASGVSDRFSGSGSGTDFTLEISRVKAEDVGVYYCLQLVEYPYTFGGGTKLEIKR
notes: also called PT50/PT53
Consider B1, for which the binding result was “binds” in assay [1], “no binding” in assay [2] and “no binding” in [9]. In addition, the “peptide ELISA signal (no name or unit printed)” value in assay [2] turned out to be 40; in assay [3], 637; in assay [4], 2880; in assay [5] it was 2090; in assay [6], 38; in assay [7], 44. For the same molecule, the “peptide ELISA signal (no name or unit printed)” value in [8] stood at 2930; in assay [9], 38; in assay [10], 29.

B2: PT81 monoclonal antibody (recombinant, mouse IgG2a/kappa) (antibody, V domains shown)
VH: QVQLQQPGAELVRPGASVILSCKASGYTFTNSWIHWVKQRPGRVLEWIGRIDPNSGGTRYNENFKSKATLTVDKPSSTAYMQLSSLTSEDSAVYFCSRGVLHDYWGQGTTLTVSS
VL: B1 VL with G69V, K84Q, L94Q
For the molecule B2, the binding result in assay [1] is on record as “binds”; in [2], “no binding”; in [9], “no binding”. Further, the “peptide ELISA signal (no name or unit printed)” value was found to be 78 in [2]; 2800 in [3]; 2900 in [4]; 2900 in assay [5]; 43 in assay [6]; 45 in [7]. In addition, the “peptide ELISA signal (no name or unit printed)” value was found to be 2920 in assay [8], 30 in assay [9] and 31 in assay [10].
